Source: article PMC1769499

Columns and labels:
[1] = target: recombinant Lhcb1 protein (LHCII apoprotein reconstituted in vitro with chlorophylls and xanthophylls); experiment: sucrose density gradient ultracentrifugation; in vitro trimerization of Lhcb1 reconstituted with a mix of all xanthophylls (L,V,N) plus Chl a and b; bound to Ni2+ column, washed with 0.1 mg/ml PG, 0.06% β-DM, 0.2 M NaCl, 20 mM phosphate pH 7.5, 10 mM imidazole; eluted, trimers separated from monomers on a sucrose gradient
[2] = target: recombinant Lhcb1 protein (LHCII apoprotein reconstituted in vitro with chlorophylls and xanthophylls); experiment: sucrose density gradient ultracentrifugation; in vitro trimerization of Lhcb1 reconstituted with lutein as only xanthophyll (100% lutein) plus Chl a and b; bound to Ni2+ column, washed with 0.1 mg/ml PG, 0.06% β-DM, 0.2 M NaCl, 20 mM phosphate pH 7.5, 10 mM imidazole; eluted, trimers separated from monomers on a sucrose gradient

**Q.** “recombinant Lhcb1 protein (LHCII apoprotein reconstituted in vitro with chlorophylls and xanthophylls) (natural protein)” was tested. Which stoichiometry N [1] did it give?
**A.** 3

**Q.** And the stoichiometry N [2]?
**A.** 3
